Experimental data from patent publication US9625458B2, “Biosensor” (priority 2002, dated 2017).

Assay: Fluorescence emission spectra without and with saturating ligand (wavelength shift, ΔIstd, ΔRmax)
Details: unbound vs ligand-saturated; for ΔIstd: standard intensity change; for ΔRmax: standard ratiometric change
Protocol: Fluorimetry. All measurements were conducted with an SLM Aminco-Bowman series 2 fluorimeter, with sample stirring at 25° C. Fluorescence emission spectra were acquired with excitation and emission slit widths of 4 and 8 nm, respectively. Photomultiplier tube potential was maintained between 400 and 800 volts. Protein concentrations were in the range of 50 to 1000 nM. Fluorophore-specific excitation was at the following approximate wavelengths: tryptophan, 290 nm; acrylodan, 390 nm; fluorescein, 485 nm; pyrene, 340 nm; NBD and NBDE, 490 nm; JPW4039, 485 nm; JPW4042, 470 nm; JPW4045, 470 nm.
Assessment of fluorescent biosensor function. Fluorescence emission spectra of bPBP-fluorophore conjugates were recorded in the absence and presence of saturating ligand concentrations. Spectral changes were characterized by four parameters: wavelength shift (the difference between the wavelengths of emission maximum in the unbound and ligand-saturated states), direction of intensity change (increase or decrease in intensity at the wavelengths of maximum emission in the two states), standard intensity change (ΔIstd), and standard ratiometric change (ΔR). ΔIstd is defined as the normalized intensity change relative to the average intensity, determined at the wavelength mid-point between the two emission maxima:
[formula] where λstd=(λmax, unbound+λmax, saturated)/2 and I1, I2 are the fluorescence intensities at λstd of each spectrum respectively (FIG. 4A). ΔR is defined in terms of two emission bands, A1 ([λ1, λ2]) and A2 ([λ3, λ4]) (FIG. 4B):
[formula] where ^∘A1, […] the areas in the absence of ligand, and ^∞A1, ^∞A2 the areas in the presence of saturating ligand. A computer program was used to enumerate ΔR for all possible pairs of wavelength bands in the two spectra, to identify the optimal sensing condition, defined as the maximum value of ΔR. Adjustable parameters of the algorithm, and their values used for ΔRmax quantities reported here, are: step size (2 nm), step width (10 nm), minimum integration area limit (fraction of total: 0.1), and maximum integration area limit (fraction of total: 1).

Molecule | ΔIstd | ΔRmax
ribose BP D165C JPW4042 (conjugate, UniProt P02925 26-296, looked up, variant D165C, JPW4042 dye conjugate) Ribose import binding protein …: KDTIALVVSTLNNPFFVSLKDGAQKEADKLGYNLVVLDSQNNPAKELANVQDLTVRGTKILLINPTDSDAVGNAVKMANQANIPVITLDRQATKGEVVSHIASDNVLGGKIAGDYIAKKAGEGAKVIELQGIAGTSAARERGEGFQQAVAAHKFNVLASQPADFCRIKGLNVMQNLLTAHPDVQAVFAQNDEMALGALRALQTAGKSDVMVVGFDGTPDGEKAVNDGKLAATIAQLPDQIGAKGVETADKVLKGEKVQAKYPVDLKLVVKQ | 0.06 | 0.27
ribose BP D165C JPW4045 (conjugate, UniProt P02925 26-296, looked up, variant D165C, JPW4045 label) Ribose import binding protein …: KDTIALVVSTLNNPFFVSLKDGAQKEADKLGYNLVVLDSQNNPAKELANVQDLTVRGTKILLINPTDSDAVGNAVKMANQANIPVITLDRQATKGEVVSHIASDNVLGGKIAGDYIAKKAGEGAKVIELQGIAGTSAARERGEGFQQAVAAHKFNVLASQPADFCRIKGLNVMQNLLTAHPDVQAVFAQNDEMALGALRALQTAGKSDVMVVGFDGTPDGEKAVNDGKLAATIAQLPDQIGAKGVETADKVLKGEKVQAKYPVDLKLVVKQ | 0.04 | 0.77
ribose BP D165C Acrylodan (conjugate, UniProt P02925 26-296, looked up, variant D165C, acrylodan conjugate) Ribose import binding protein …: KDTIALVVSTLNNPFFVSLKDGAQKEADKLGYNLVVLDSQNNPAKELANVQDLTVRGTKILLINPTDSDAVGNAVKMANQANIPVITLDRQATKGEVVSHIASDNVLGGKIAGDYIAKKAGEGAKVIELQGIAGTSAARERGEGFQQAVAAHKFNVLASQPADFCRIKGLNVMQNLLTAHPDVQAVFAQNDEMALGALRALQTAGKSDVMVVGFDGTPDGEKAVNDGKLAATIAQLPDQIGAKGVETADKVLKGEKVQAKYPVDLKLVVKQ | 0.00 | 0.37
ribose BP E192C JPW4039 (conjugate, UniProt P02925 26-296, looked up, variant E192C, JPW4039 dye label) Ribose import binding protein …: KDTIALVVSTLNNPFFVSLKDGAQKEADKLGYNLVVLDSQNNPAKELANVQDLTVRGTKILLINPTDSDAVGNAVKMANQANIPVITLDRQATKGEVVSHIASDNVLGGKIAGDYIAKKAGEGAKVIELQGIAGTSAARERGEGFQQAVAAHKFNVLASQPADFDRIKGLNVMQNLLTAHPDVQAVFAQNDCMALGALRALQTAGKSDVMVVGFDGTPDGEKAVNDGKLAATIAQLPDQIGAKGVETADKVLKGEKVQAKYPVDLKLVVKQ | 0.44 | 0.34
ribose BP E192C Fluorescein (conjugate, UniProt P02925 26-296, looked up, variant E192C, fluorescein label) Ribose import binding protein …: KDTIALVVSTLNNPFFVSLKDGAQKEADKLGYNLVVLDSQNNPAKELANVQDLTVRGTKILLINPTDSDAVGNAVKMANQANIPVITLDRQATKGEVVSHIASDNVLGGKIAGDYIAKKAGEGAKVIELQGIAGTSAARERGEGFQQAVAAHKFNVLASQPADFDRIKGLNVMQNLLTAHPDVQAVFAQNDCMALGALRALQTAGKSDVMVVGFDGTPDGEKAVNDGKLAATIAQLPDQIGAKGVETADKVLKGEKVQAKYPVDLKLVVKQ | 0.12 | 1.31
ribose BP E192C NBD (conjugate, UniProt P02925 26-296, looked up, variant E192C, NBD dye conjugate) Ribose import binding protein …: KDTIALVVSTLNNPFFVSLKDGAQKEADKLGYNLVVLDSQNNPAKELANVQDLTVRGTKILLINPTDSDAVGNAVKMANQANIPVITLDRQATKGEVVSHIASDNVLGGKIAGDYIAKKAGEGAKVIELQGIAGTSAARERGEGFQQAVAAHKFNVLASQPADFDRIKGLNVMQNLLTAHPDVQAVFAQNDCMALGALRALQTAGKSDVMVVGFDGTPDGEKAVNDGKLAATIAQLPDQIGAKGVETADKVLKGEKVQAKYPVDLKLVVKQ | 0.00 | 1.67
ribose BP L236C JPW4039 (conjugate, UniProt P02925 26-296, looked up, variant L236C, JPW4039 dye conjugate) Ribose import binding protein …: KDTIALVVSTLNNPFFVSLKDGAQKEADKLGYNLVVLDSQNNPAKELANVQDLTVRGTKILLINPTDSDAVGNAVKMANQANIPVITLDRQATKGEVVSHIASDNVLGGKIAGDYIAKKAGEGAKVIELQGIAGTSAARERGEGFQQAVAAHKFNVLASQPADFDRIKGLNVMQNLLTAHPDVQAVFAQNDEMALGALRALQTAGKSDVMVVGFDGTPDGEKAVNDGKLAATIAQCPDQIGAKGVETADKVLKGEKVQAKYPVDLKLVVKQ | 0.08 | 0.29
ribose BP L236C JPW4042 (conjugate, UniProt P02925 26-296, looked up, variant L236C, JPW4042 dye conjugate) Ribose import binding protein …: KDTIALVVSTLNNPFFVSLKDGAQKEADKLGYNLVVLDSQNNPAKELANVQDLTVRGTKILLINPTDSDAVGNAVKMANQANIPVITLDRQATKGEVVSHIASDNVLGGKIAGDYIAKKAGEGAKVIELQGIAGTSAARERGEGFQQAVAAHKFNVLASQPADFDRIKGLNVMQNLLTAHPDVQAVFAQNDEMALGALRALQTAGKSDVMVVGFDGTPDGEKAVNDGKLAATIAQCPDQIGAKGVETADKVLKGEKVQAKYPVDLKLVVKQ | 0.55 | 3.58
ribose BP L236C JPW4045 (conjugate, UniProt P02925 26-296, looked up, variant L236C, JPW4045 dye label) Ribose import binding protein …: KDTIALVVSTLNNPFFVSLKDGAQKEADKLGYNLVVLDSQNNPAKELANVQDLTVRGTKILLINPTDSDAVGNAVKMANQANIPVITLDRQATKGEVVSHIASDNVLGGKIAGDYIAKKAGEGAKVIELQGIAGTSAARERGEGFQQAVAAHKFNVLASQPADFDRIKGLNVMQNLLTAHPDVQAVFAQNDEMALGALRALQTAGKSDVMVVGFDGTPDGEKAVNDGKLAATIAQCPDQIGAKGVETADKVLKGEKVQAKYPVDLKLVVKQ | 0.25 | 1.70
ribose BP L236C Fluorescein (conjugate, UniProt P02925 26-296, looked up, variant L236C, fluorescein conjugate) Ribose import binding protein …: KDTIALVVSTLNNPFFVSLKDGAQKEADKLGYNLVVLDSQNNPAKELANVQDLTVRGTKILLINPTDSDAVGNAVKMANQANIPVITLDRQATKGEVVSHIASDNVLGGKIAGDYIAKKAGEGAKVIELQGIAGTSAARERGEGFQQAVAAHKFNVLASQPADFDRIKGLNVMQNLLTAHPDVQAVFAQNDEMALGALRALQTAGKSDVMVVGFDGTPDGEKAVNDGKLAATIAQCPDQIGAKGVETADKVLKGEKVQAKYPVDLKLVVKQ | 0.02 | 0.29
ribose BP L236C NBD (conjugate, UniProt P02925 26-296, looked up, variant L236C, NBD label) Ribose import binding protein …: KDTIALVVSTLNNPFFVSLKDGAQKEADKLGYNLVVLDSQNNPAKELANVQDLTVRGTKILLINPTDSDAVGNAVKMANQANIPVITLDRQATKGEVVSHIASDNVLGGKIAGDYIAKKAGEGAKVIELQGIAGTSAARERGEGFQQAVAAHKFNVLASQPADFDRIKGLNVMQNLLTAHPDVQAVFAQNDEMALGALRALQTAGKSDVMVVGFDGTPDGEKAVNDGKLAATIAQCPDQIGAKGVETADKVLKGEKVQAKYPVDLKLVVKQ | 0.11 | 1.96
ribose BP L265C JPW4039 (conjugate, UniProt P02925 26-296, looked up, variant L265C, JPW4039 label) Ribose import binding protein …: KDTIALVVSTLNNPFFVSLKDGAQKEADKLGYNLVVLDSQNNPAKELANVQDLTVRGTKILLINPTDSDAVGNAVKMANQANIPVITLDRQATKGEVVSHIASDNVLGGKIAGDYIAKKAGEGAKVIELQGIAGTSAARERGEGFQQAVAAHKFNVLASQPADFDRIKGLNVMQNLLTAHPDVQAVFAQNDEMALGALRALQTAGKSDVMVVGFDGTPDGEKAVNDGKLAATIAQLPDQIGAKGVETADKVLKGEKVQAKYPVDCKLVVKQ | 0.01 | 0.11
ribose BP L265C JPW4042 (conjugate, UniProt P02925 26-296, looked up, variant L265C, JPW4042 label) Ribose import binding protein …: KDTIALVVSTLNNPFFVSLKDGAQKEADKLGYNLVVLDSQNNPAKELANVQDLTVRGTKILLINPTDSDAVGNAVKMANQANIPVITLDRQATKGEVVSHIASDNVLGGKIAGDYIAKKAGEGAKVIELQGIAGTSAARERGEGFQQAVAAHKFNVLASQPADFDRIKGLNVMQNLLTAHPDVQAVFAQNDEMALGALRALQTAGKSDVMVVGFDGTPDGEKAVNDGKLAATIAQLPDQIGAKGVETADKVLKGEKVQAKYPVDCKLVVKQ | 0.91 | 2.13
ribose BP L265C JPW4045 (conjugate, UniProt P02925 26-296, looked up, variant L265C, JPW4045 label) Ribose import binding protein …: KDTIALVVSTLNNPFFVSLKDGAQKEADKLGYNLVVLDSQNNPAKELANVQDLTVRGTKILLINPTDSDAVGNAVKMANQANIPVITLDRQATKGEVVSHIASDNVLGGKIAGDYIAKKAGEGAKVIELQGIAGTSAARERGEGFQQAVAAHKFNVLASQPADFDRIKGLNVMQNLLTAHPDVQAVFAQNDEMALGALRALQTAGKSDVMVVGFDGTPDGEKAVNDGKLAATIAQLPDQIGAKGVETADKVLKGEKVQAKYPVDCKLVVKQ | 0.02 | 0.12
